pKd: −log10 of the molar value.
Experiments:
[1] = target: HLA-A*01:01; test: IEDB peptide-MHC binding, purified MHC/direct/fluorescence; filed as Kd, often an IC50 or EC50 that approximates it; ≥ and ≤ were set here for values at or beyond the usual limits of such assays
[2] = target: HLA-A*02:01; test: as above
[3] = target: HLA-A*03:01; test: as above
[4] = target: HLA-A*11:01; test: as above
[5] = target: HLA-A*31:01; test: as above
[6] = target: HLA-B*08:02; test: as above
[7] = target: HLA-B*27:05; test: as above
[8] = target: HLA-B*40:01; test: as above
[9] = target: HLA-B*44:02; test: as above; details: source organism: Yellow fever virus
[10] = target: HLA-B*46:01; test: as above
[11] = target: HLA-B*48:01; test: as above
[12] = target: HLA-B*57:01; test: as above
[13] = target: HLA-B*58:01; test: as above
[14] = target: HLA-A*02:01; test: IEDB peptide-MHC binding, purified MHC/competitive/fluorescence; filed as Kd, often an IC50 or EC50 that approximates it; ≥ and ≤ were set here for values at or beyond the usual limits of such assays; details: source organism: Entamoeba histolytica HM-1:IMSS
[15] = target: HLA-A*02:16; test: as above; details: source organism: Entamoeba histolytica HM-1:IMSS
[16] = target: HLA-B*18:01; test: IEDB peptide-MHC binding, purified MHC/direct/fluorescence; filed as Kd, often an IC50 or EC50 that approximates it; ≥ and ≤ were set here for values at or beyond the usual limits of such assays
[17] = target: HLA-B*15:42; test: IEDB peptide-MHC binding, purified MHC/competitive/fluorescence; filed as Kd, often an IC50 or EC50 that approximates it; ≥ and ≤ were set here for values at or beyond the usual limits of such assays
[18] = target: HLA-B*45:06; test: as above
[19] = target: HLA-B*83:01; test: as above
[20] = target: HLA-C*04:01; test: as above
[21] = target: HLA-B*15:01; test: IEDB peptide-MHC binding, purified MHC/direct/fluorescence; filed as Kd, often an IC50 or EC50 that approximates it; ≥ and ≤ were set here for values at or beyond the usual limits of such assays
[22] = target: HLA-B*15:02; test: as above; details: source organism: Escherichia coli O157:H7
[23] = target: HLA-A*02:03; test: IEDB peptide-MHC binding, purified MHC/competitive/fluorescence; filed as Kd, often an IC50 or EC50 that approximates it; ≥ and ≤ were set here for values at or beyond the usual limits of such assays; details: source organism: Francisella tularensis subsp. tularensis FSC198
[24] = target: HLA-A*02:12; test: as above; details: source organism: Francisella tularensis subsp. tularensis FSC198
[25] = target: HLA-A*02:19; test: as above; details: source organism: Francisella tularensis subsp. tularensis FSC198
[26] = target: HLA-A*03:01; test: as above; details: source organism: Francisella tularensis subsp. tularensis FSC198
[27] = target: HLA-A*26:01; test: as above; details: source organism: Francisella tularensis subsp. tularensis FSC198
[28] = target: HLA-A*29:02; test: as above; details: source organism: Francisella tularensis subsp. tularensis FSC198
[29] = target: HLA-B*15:01; test: as above; details: source organism: Francisella tularensis subsp. tularensis FSC198
[30] = target: HLA-B*18:01; test: as above; details: source organism: Francisella tularensis subsp. tularensis FSC198
[31] = target: HLA-B*27:03; test: as above; details: source organism: Francisella tularensis subsp. tularensis FSC198
[32] = target: HLA-B*39:01; test: as above; details: source organism: Francisella tularensis subsp. tularensis FSC198
[33] = target: HLA-B*46:01; test: as above; details: source organism: Francisella tularensis subsp. tularensis FSC198
[34] = target: HLA-B*51:01; test: as above; details: source organism: Francisella tularensis subsp. tularensis FSC198
[35] = target: HLA-B*57:01; test: as above; details: source organism: Francisella tularensis subsp. tularensis FSC198
[36] = target: HLA-A*26:01; test: IEDB peptide-MHC binding, purified MHC/direct/fluorescence; filed as Kd, often an IC50 or EC50 that approximates it; ≥ and ≤ were set here for values at or beyond the usual limits of such assays; details: source organism: Mycobacterium tuberculosis str. Haarlem
[37] = target: HLA-A*69:01; test: as above
[38] = target: HLA-B*15:09; test: as above; details: source organism: Mycobacterium tuberculosis str. Haarlem
[39] = target: HLA-B*15:17; test: as above; details: source organism: Mycobacterium tuberculosis
[40] = target: HLA-B*51:01; test: as above; details: source organism: Mycobacterium tuberculosis
[41] = target: HLA-A*01:01; test: IEDB peptide-MHC binding, purified MHC/competitive/fluorescence; filed as Kd, often an IC50 or EC50 that approximates it; ≥ and ≤ were set here for values at or beyond the usual limits of such assays; details: source organism: Mycobacterium tuberculosis variant bovis BCG str. Pasteur 1173P2
[42] = target: HLA-C*05:01; test: IEDB peptide-MHC binding, purified MHC/direct/fluorescence; filed as Kd, often an IC50 or EC50 that approximates it; ≥ and ≤ were set here for values at or beyond the usual limits of such assays; details: source organism: Rattus norvegicus
[43] = target: HLA-B*07:02; test: as above; details: source organism: Yellow fever virus
[44] = source organism: Yellow fever virus
[45] = source organism: West Nile virus
[46] = source organism: Mycobacterium tuberculosis C
[47] = source organism: Escherichia coli O157:H7
[48] = source organism: Mycobacterium tuberculosis

Measured: pKd

EVRLATMLF
≤ 4.70: [1]; [44] | [2]; [44] | [3]; [44] | [4]; [44] | [5]; [44] | [6]; [44] | [7]; [44] | [8]; [44] | [9] | [10]; [44] | [11]; [44] | [12]; [44] | [13]; [44]

FHFNPLPNV
6.94: [14]
6.89: [15]

REWFMDLNL
≤ 5.30: [17]; [45] | [18]; [45] | [19]; [45] | [20]; [45]
5.87: [16]; [45]

RLYELIGSV
≤ 5.30: [17]; [46] | [18]; [46] | [19]; [46] | [20]; [46]

RMFEKSTHH
7.12: [21]; [47]
≤ 4.70: [10]; [47]
4.80: [22]

RSFPEWDYI
7.01: [35]
≤ 4.70: [23] | [24] | [25] | [26] | [27] | [28] | [29] | [30] | [31] | [32] | [33] | [34]

SPREECGVF
5.92: [21]; [48]
≤ 4.70: [2]; [48] | [3]; [48] | [4]; [48] | [36] | [5]; [48] | [37]; [48] | [6]; source organism: Mycobacterium tuberculosis str. Haarlem | [38] | [39] | [16]; [48] | [7]; [48] | [8]; [48] | [10]; [48] | [11]; [48] | [40] | [12]; [48] | [13]; [48] | [41]

YFDPANGKF
8.82: [20]; source organism: Rattus norvegicus
5.44: [1]; source organism: Homo sapiens
≤ 4.36: [4]; source organism: Homo sapiens
≤ 4.55: [37]; source organism: Homo sapiens
6.96: [42]
≤ 4.64: [2]; source organism: Homo sapiens

YFHKRDMRL
5.33: [6]; [44]
≤ 4.70: [1]; [44] | [3]; [44] | [4]; [44] | [37]; [44] | [43] | [21]; [44] | [16]; [44] | [7]; [44] | [8]; [44] | [9] | [10]; [44] | [11]; [44] | [12]; [44] | [13]; [44]

Source: the Immune Epitope Database (IEDB)
